In the supplement of paper PMC12042874:
± gives the uncertainty stated by the source.

Test: amyloid nucleation score (Sup35N fusion, yeast selection) (log enrichment); library NNK1; higher = more nucleation; inactive = no reads after selection
How it was run: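 In psi-negative yeast, Sup35N fusions carrying peptides of 20 random codons were induced with 100 μM copper sulfate for 24 hours. The cells then grew 7 days at 30°C on medium lacking adenine and uracil, and plasmid inserts from input and output were Illumina-sequenced, excluding sequences with under 100 input reads. Nucleation score is the DiMSum log enrichment of output over input reads, centred on the mode score of non-aggregating sequences.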

Row | Substance | amyloid nucleation score
1 | FFWSYAYIVIRLVSTKCWY | 0.011 ± 0.28
2 | DVANRVVSSFLIC | -0.525 ± 0.45
3 | TVRKDGNTRSFFSSLRMQAS | -0.654 ± 0.3
4 | WWRIIGTEAQNMGG | 0.631 ± 0.55
5 | VRSPNIEYDFCRVLPTLTGE | 0.505 ± 1.4
6 | VSLVMWVYCGDDWLSFAIRA | -0.211 ± 0.38
7 | QMVQYSRKSITFLGRPVLFS | 0.291 ± 0.55
8 | LGHAKRGDWSWLKFSCDSGE | -0.167 ± 0.48
9 | FSIAASASTLFDGFVIWRF | 0.027 ± 0.5
10 | CCTDIISQRIVGYLMVVC | -0.755 ± 0.68
11 | NCFIKDAMVMSSRMYSGNMI | inactive
12 | VLVDKSDRVRGLS | -0.101 ± 0.3
13 | DTSFYIMLNYITIQYNSFAG | 7.86 ± 0.054
14 | SVHKSMKSDINMACHAKR | 1.04 ± 0.6
15 | FNVRC | 0.496 ± 0.36
16 | LRYDVPRWLGFSEWHF | -0.833 ± 1
17 | ALNHRHTGTRK | 0.782 ± 0.61
18 | FFTHCMWD | -1.05 ± 1.1
19 | GCDGATVAGGTNYPDQMYSF | 0.786 ± 0.74
20 | FAPRSLGFYMNFFPRMMGQR | -0.88 ± 1.5
21 | NVAGMSPQSWVVDTSSR | 1.34 ± 0.4
22 | GGELKARNKREGNQSSA | 0.058 ± 0.72
23 | APCQYSFVSVSYSTVNWLMT | 8.933 ± 0.071
24 | LCFMILNGGRQSQAQKDSYV | 0.086 ± 0.4
25 | LLHHYGGYELVSDWTIAKF | 0.364 ± 0.31

Row | Substance | amyloid nucleation score
26 | YMNWFITGHDVGRYLIQFFV | -1.74 ± 2.4
27 | SEWAMRITLATASSQTGGSE | 0.235 ± 0.32
28 | AWLLLEDWFVNRVILICGAK | 0.027 ± 0.27
29 | DSNATTHVRMKVSLTGRFLR | 4.8 ± 0.056
30 | YSCWFKHRTALPIGSEGMTR | 0.708 ± 0.53
31 | SYFRFVLYN | 0.052 ± 1.1
32 | TKIGKYKFAYCNAIAGARVE | 0.766 ± 0.87
33 | LIFLDMAVL | -0.403 ± 1.4
34 | LFALQGHGILSVHSFVRHWG | 0.165 ± 1.1
35 | IGMQLMVKTSLRHYGMYHTA | 1.65 ± 0.44
36 | CSLIIFAYRRLEFMILFYFD | -0.26 ± 0.49
37 | TYNVLSTLWRFCVIVLRICC | 0.558 ± 1.1
38 | LGLPSVFRRHFAFMVRMLWY | 0.021 ± 0.75
39 | QDWHDYLYGKFIGNNYGKYI | 1.44 ± 0.47
40 | NNTFVIVKFEAKDTFVEGVR | 1.57 ± 0.3
41 | SMGLHLMQMAAGEHIGRNR | -0.31 ± 0.4
42 | KKYVRGWGAFLAMQHGGMM | -0.604 ± 0.6
43 | SWYVVG | -0.373 ± 0.97
44 | RFFSGLIVHNLLCLCRPPNP | 6.58 ± 0.078
45 | SFMAVSKGFMTIISSYYLC | -0.662 ± 0.32
46 | TPCNVLGNSGPVWSWNP | 0.166 ± 0.81
47 | FNDHWSCRV | -0.095 ± 0.48
48 | NFYMGETDGACLCASMRDPQ | 2.62 ± 0.14
49 | RPNLDWFLRLGFSYKCDDRR | 4.56 ± 0.13
50 | VGDYFFGDDSIGGSRMHVSY | 1.15 ± 0.65

Row | Substance | amyloid nucleation score
51 | LEMCLQDVIDGSGQGQNEWG | -0.074 ± 0.7
52 | TSPYAFKRWFSLGLYDLSRF | inactive
53 | NARVILCVVFILGAMTRLGL | -0.549 ± 0.65
54 | NFRGFLVTDPLSSS | -0.842 ± 0.42
55 | NCDLECQSLRAYGLSCKKSR | -0.22 ± 0.43
56 | EMHFR | 0.024 ± 0.65
57 | VVLSIYTNITSCCDLLTSRR | 6.787 ± 0.047
58 | IKMSSRYFMLGTLLSPGLEV | inactive
59 | EQPGVHYQNQFYKHVLYNAS | 0.587 ± 0.38
60 | SMRFYYA | 2.97 ± 0.23
61 | FRGEVYELEIKGKILSSVFV | 0.121 ± 0.24
62 | MNFDNGDFYWFVTRIISITC | 0.99 ± 0.19
63 | TFLSTLIALISRFSRSESWM | 1.24 ± 0.93
64 | NVKLFFNIFVGKSKIHTTPW | 6.308 ± 0.058
65 | NLEHKCVFVLHMKTLIISQP | 0.664 ± 1.2
66 | FNQINQGCRGCKQRTLVPDI | 0.5 ± 0.67
67 | EINKLS | -1.27 ± 1.1
68 | TYLYNYILASSLSHRALYNA | 1.62 ± 0.73
69 | SWFKSWSPKALSARIGRVYL | -0.176 ± 0.55
70 | FWDVVKLNGGSGMALFYAGL | 0.145 ± 1
71 | MLCVGKA | -1.16 ± 0.64
72 | EPYLISEFRRT | -0.364 ± 0.47
73 | PHRFVN | -0.188 ± 0.3
74 | VLAVCKVYASWYFTFWMF | 4 ± 0.088
75 | GTTCGSLHRAWGLAKTGCNW | -0.388 ± 0.42

Row | Substance | amyloid nucleation score
76 | ANSGTRIRFYICWFKSETTW | 1.87 ± 0.1
77 | TGNCAMFPTWLHVIPFSQY | 3.1 ± 0.14
78 | DWQMMVYRNAFLPR | -1.32 ± 1.3
79 | SLDGNFTKALLLKIR | 1.08 ± 0.35
80 | DCMFYVDRTGRSIGVVSIVE | -0.021 ± 0.28
81 | VCIFCFRGGMVKRPTLDMVY | 0.564 ± 0.19
82 | LPYTHFGDDLIGITQDGLRV | -0.035 ± 0.43
83 | GLRCFCTFHCMWFVLNSSN | 0.025 ± 0.34
84 | SSINMVVSPK | 1.09 ± 0.3
85 | AIYSPYRNLER | 0.233 ± 0.42
86 | LFVDPL | 1.06 ± 0.88
87 | KLTQKCHKCLH | 0.107 ± 0.68
88 | GSGYFDGVIFIYLT | -1.11 ± 1.1
89 | VLLIRYYFMKFDLSL | 0.359 ± 0.47
90 | SKCRL | 1.92 ± 0.62
91 | SVRVMVLFWIKHCRLLWGRH | -0.405 ± 1.7
92 | TIFNLLPMGC | 0.975 ± 0.58
93 | LFFVSRG | -0.465 ± 1.6
94 | LTEDLNMPSWCKP | 0.087 ± 0.7
95 | CVIKHSLRCFAIIGLSHRGG | -0.255 ± 0.97
96 | FLNCVSLVNLLRLFRVCLMP | -0.765 ± 1.5
97 | NCVTL | inactive
98 | VMAGHFCYWCRCRVARQLSW | -0.69 ± 0.77
99 | DKEYWSVSSVRYTTENGWI | 1.07 ± 0.47
100 | SMFASL | -0.229 ± 0.43

Row | Substance | amyloid nucleation score
101 | LYEFRGGTHVGSDFSDVVFV | 1.05 ± 0.47
102 | YLLESSTIGIV | 0.474 ± 0.69
103 | SVVRTMSLLATFLRV | -0.795 ± 1.6
104 | WEWIQDVWVPHISDPLSWAI | -1.2 ± 0.83
105 | LCTFIVWKMPICPMWWGW | 0.255 ± 0.2
106 | GFPTPEPEDNVARSVRWIYS | -1.47 ± 1
107 | KCGIVVNVQHRKPRGRIPAQ | -1.02 ± 0.67
108 | LGFVRLGGSCHITIDSGACV | -0.386 ± 1
109 | SCFLC | 1.4 ± 0.18
110 | LDMECYYSIYRSESNVCMWI | 1.31 ± 0.93
111 | STTSMPDWLNVWVSRSSSVV | 1.06 ± 0.28
112 | HQIPCPFRSRLARPGHLLEI | -0.612 ± 1
113 | DSRDVNSSLIIRVRVEDGTL | -1.2 ± 1.5
114 | TWSSKIEDSSAYYDG | 1.65 ± 0.36
115 | YNYVG | -1.29 ± 2.7
116 | GVGMAPATLGPETHEKSELM | 0.282 ± 0.3
117 | RILWSLYGGSLFPYVSVGWR | 0.552 ± 0.56
118 | SVLSMLIWYKPHREGSLN | 0.812 ± 1.1
119 | LIAVQWASMRQAWNIC | 0.616 ± 1.2
120 | MSYRD | -0.995 ± 1.7
121 | LNVRGITIKLCHFRRIWYAQ | -1.25 ± 0.83
122 | NGRIQKLASNTCGLWEDLDT | 0.501 ± 0.54
123 | YLFFNLYCNYVLTAMLRACS | inactive
124 | NDTNI | 0.175 ± 1.1
125 | AYKVSRKLKVLRFDFIEV | -0.477 ± 0.71

Row | Substance | amyloid nucleation score
126 | YLDDIH | -0.105 ± 0.44
127 | IWLDCIGRYSGVYRHVINDV | -0.863 ± 0.37
128 | TMHVMVGGYL | 1.38 ± 0.41
129 | KIDGRPVHIPRFRYDNDNKV | -0.359 ± 0.47
130 | ISFCGTRGFK | 0.154 ± 0.75
131 | PDLTSCDVIVIWGFGRG | -0.118 ± 1
132 | SRLWVFD | 0.314 ± 0.79
133 | SASLS | 0.396 ± 0.71
134 | GYCVLVTLLGNTNEYPAGCP | 0.563 ± 0.41
135 | FSLYAPSTPYSSMVRIRLSD | inactive
136 | VISRSVDYTPM | -0.599 ± 0.46
137 | YLSRGNY | -0.245 ± 0.79
138 | VSWHGSVLHRACMKWVCMCG | 0.51 ± 0.79
139 | HLINLSDEIQYSYCNKRMVS | inactive
140 | RFLIGWFFSFLGCFLKRDSW | -0.571 ± 1.6
141 | LMGMRPFELHRRRGHGHVLG | -0.019 ± 0.64
142 | IAMKPENK | -0.997 ± 0.57
143 | ACDLNIIWADNSDYLIYVIS | 0.341 ± 0.36
144 | REPACYSKVTLADKYRLVSE | 1.26 ± 0.74
145 | GYFVSMSTDYSLSWRYICSA | -1.16 ± 0.67
146 | CSYCVAENQFMEFRGFMRGP | 0.234 ± 0.34
147 | TSIRRRLVRFFFNILPVVGL | 1.67 ± 0.17
148 | NILVAIL | -1.45 ± 1.4
149 | KSAYVANRGCRRLYGVHNKM | -0.647 ± 0.71
150 | FIRSRMVWLCLMLISTIERG | 0.835 ± 0.39

Row | Substance | amyloid nucleation score
151 | RGNLAGLVLMNRHGCV | 0.078 ± 0.4
152 | SSIVKYSCLVVFFQRNHVIP | inactive
153 | ICFCL | 7.772 ± 0.054
154 | FGSMFVRLFFGSLNKYGMVK | -0.712 ± 0.92
155 | RVRNMPTPSLSHMNLFSSVG | -0.038 ± 0.35
156 | TRQWGHFSLYGESYFSCI | 0.187 ± 0.63
157 | NSYQSSFSEFAASICFDTAE | -2.5 ± 2.4
158 | LSHSEDVSQETTIYPNLSCN | -0.533 ± 0.68
159 | NKLEYPHNNACATCC | 1.09 ± 0.84
160 | YKRCAPDRHYG | 1.06 ± 0.58
161 | LGFSVCSRLVFIWEYASFGK | 0.459 ± 0.46
162 | RSCLMSC | 0.141 ± 0.54
163 | TWYILMTRGILGTAATHIRL | -0.234 ± 0.91
164 | GVMCIMYNFSHYYLSVVNNR | 7.77 ± 0.083
165 | ESTGQFYSPGSWVQGWTAYM | 0.398 ± 0.66
166 | VYSEVSFDF | inactive
167 | SVRVI | 0.105 ± 0.73
168 | DNTWLFVAL | 0.918 ± 0.35
169 | DLIWNSSFVRLNVTNPLMFR | inactive
170 | TVANT | 0.888 ± 1.1
171 | CWLRIGSSFRRARSGWTCDS | -0.834 ± 0.91
172 | IYGIMLG | inactive
173 | YHWILKSCLWMVWSSVYLPI | -0.663 ± 1.7
